Maximal activity, colocalization and detection between antibody and aggregates data for 1 molecule are collected here from patent US20240269318A1.

What all share (conditions): remark: other sources report otherwise
For test [1], the target named is T1, recombinant human alpha-synuclein aggregates (ab218819) (human), P37840. Put plainly: ELISA on AS aggregates; antibody pre-heated 1 hr at 65 °C, measured immediately. A general note: ELISA stands for enzyme-linked immunosorbent assay.
Test [2] addresses T1, recombinant human alpha-synuclein …. The test can be described thus: super-resolution microscopy; Cy3-SynO4 and Alexa Fluor 488-AS aggregates in differentiated SH-SY5Y cells.
Test [3] shares this target. Put plainly: ELISA on AS aggregates; antibody pre-heated 1 hr at 65 °C, stored overnight at 4 °C, measured the next day.
Test [4] has the same target. The test can be described thus: super-resolution imaging in differentiated SH-SY5Y cells loaded with AS aggregates; SynO4 delivered by TF-liposomes.

B1: SynO4 antibody (Creative Biolabs, USA) (antibody)
chain 1: EVQLVESGGGLVQPKGSLKLSCAASGFTFNTYAMHWVRQAPGKGLEWVARIRSKSSNYATYYADSVKDRFTISRDDSQSMLYLQMNNLKTEDTAMYYCVRPLKWYFDVWGTGTTVTVSS
chain 2: QIVLTQSPAILSASPGEKVTMTCSASSTVNYMHWYQQKSGTSPKIWIYDTSKLASGVPARFSGSGSWTSYSLTISSMEAEDAATYYCQQWNSNPPTFGAGTKLELK
For the molecule B1, the maximal activity in test [1] came out at 22%; in test [3], 44%. The colocalization in test [2] was determined as 75%. In test [4], the detection between antibody and aggregates was above 80%.
